This passage reports Kd results from paper PMC11065761 (The Journal of Biological Chemistry, 2024).

As a reminder, the Kd is a measure of binding affinity in units of concentration. Low values mean higher affinity, high ones lower affinity.

This assay deals with C3b. The assay can be described thus: SPR. Background: Surface plasmon resonance follows binding to a sensor surface in real time, without labels.

B1: TriFu_no_linker (triple fusion complement inhibitor without polyglycine linker between DAF and FH) (other)
chain: DCGLPPDVPNAQPALEGRTSFPEDTVITYKCEESFVKIPGEKDSVICLKGSQWSDIEEFCNRSCEVPTRLNSASLKQPYITQNYFPVGTVVEYECRPGYRREPSLSPKLTCLQNLKWSTAVEFCKKKSCPNPGEIRNGQIDVPGGILFGATISFSCNTGYKLFGSTSSFCLISGSSVQWSDPLPECREIYCPAPPQIDNGIIQGERDHYGYRQSVTYACNKGFTMIGEHSIYCTVNNDEGEWSGPPPECRGGKCGPPPPIDNGDITSFPLSVYAPASSVEYQCQNLYQLEGNKRITCRNGQWSEPPKCLHPCVISREIMENYNIALRWTAKQKLYSRTGESVEFVCKRGYRLSSRSHTLRTTCWDGKLEYPTCAKRGHCQAPDHFLFAKLKTQTNASDFPIGTSLKYECRPEYYGRPFSITCLDNLVWSSPKDVCKRKSCKTPPDPVNGMVHVITDIQVGSRINYSCTTGHRLIGHSSAECILSGNTAHWSTKPPICQRIPCGLPPTIANGDFISTNRENFHYGSVVTYRCNLGSRGRKVFELVGEPSIYCTSNDDQVGIWSGPAPQCII
B1 had a Kd of 98 nM.
